Reference: patent publication CN114230673A (dated 2022)

Key:
Test in all cases: ELISA, biotinylated recombinant protein on streptavidin plate, HRP anti-His detection
生物素标记重组人BCMA (rhBCMA) = target: T1, 生物素标记重组人BCMA (rhBCMA) (human, UniProt Q02223 1-54, biotin label (site not stated))
T1 construct: Bought protein
T1 sequence (looked up): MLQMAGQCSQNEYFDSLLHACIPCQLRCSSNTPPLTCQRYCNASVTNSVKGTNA

生物素标记重组人CD27 (rhCD27) = target: T2, 生物素标记重组人CD27 (rhCD27) (human, UniProt P26842 21-192, limits assumed, biotin label (site not stated))
T2 construct: Bought protein
T2 sequence (looked up): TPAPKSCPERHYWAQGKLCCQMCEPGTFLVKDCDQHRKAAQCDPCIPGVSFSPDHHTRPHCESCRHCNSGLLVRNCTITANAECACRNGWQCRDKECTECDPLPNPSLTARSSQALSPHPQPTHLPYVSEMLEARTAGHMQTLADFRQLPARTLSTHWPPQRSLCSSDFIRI

生物素标记重组人CD40 (rhCD40) = target: T3, 生物素标记重组人CD40 (rhCD40) (human, UniProt P25942 21-193, biotin label (site not stated))
T3 construct: Bought protein

Measured: binding result

T3 sequence (P25942 21-193 limits assumed): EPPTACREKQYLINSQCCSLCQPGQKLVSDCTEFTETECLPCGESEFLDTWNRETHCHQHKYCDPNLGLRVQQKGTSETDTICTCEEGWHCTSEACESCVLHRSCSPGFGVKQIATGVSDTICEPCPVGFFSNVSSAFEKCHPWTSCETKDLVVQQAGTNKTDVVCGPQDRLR

B1: anti-CD19 scFv (scFv)
scFv: DIQMTQTTSSLSASLGDRVTISCRASQDISKYLNWYQQKPDGTVKLLIYHTSRLHSGVPSRFSGSGSGTDYSLTISNLEQEDIATYFCQQGNTLPYTFGGGTKLEITGGGGSGGGGSGGGGSEVKLQESGPGLVAPSQSLSVTCTVSGVSLPDYGVSWIRQPPRKGLEWLGVIWGSETTYYNSALKSRLTIIKDNSKSQVFLKMNSLQTDDTAIYYCAKHYYYGGSYAMDYWGQGTSVTVSS
notes: Soluble scFv used in the ELISA and flow cytometry; also called CD19抗体; 小鼠抗人anti CD19-scFv抗体; not shown: His tag implied by the anti-His detection antibody
no binding: all assays above
